Results published in doi:10.1101/2025.09.10.675359.

Target: recombinant human CD4 (rCD4) (human, UniProt P01730 26-396)
Test: BLI

B1: Apt62 (Aptamer 62) (structured_DNA)
DNA: ATCCAGAGTGACGCAGCACCACCACCGTACAATTCGCTTTCTTTTTTCATTACCTACTCTGGCTTTTT
For B1, the Kd was 536 nM.
